Test results published in publication PMC4667285, “Octameric structure of Staphylococcus aureus enolase in complex with phosphoenolpyruvate” (Acta Crystallographica Section D: Biological Crystallography, 2015).

What was measured:
Sa_enolase (octamer) = target: T1, Sa_enolase (octamer) (Staphylococcus aureus, UniProt O69174); experiment: isothermal titration calorimetry; assay type: binding
T1 construct: gene eno; C-terminal hexahistidine tag, pET-24a, E. coli BL21(DE3); residues 1-434 described; octamer fraction separated from dimer by size-exclusion chromatography

[1] = test system: O=C(O)[C@@H](CO)OP(=O)(O)O; experiment: purified protein; conditions: octamer, room temperature, 20 mM IMD–HCl, 400 mM KCl, 1 mM magnesium acetate pH 7.0
[2] = target: Sa_enolase D355A mutant (Staphylococcus aureus) (UniProt Q2G028); experiment: SEC
[3] = target: Sa_enolase F139A mutant (Staphylococcus aureus) (UniProt Q2G028); experiment: SEC
[4] = target: Sa_enolase G138A mutant (Staphylococcus aureus) (UniProt Q2G028); experiment: SEC
[5] = target: Sa_enolase Y135A mutant (Staphylococcus aureus) (UniProt Q2G028); experiment: SEC
[6] = target: Staphylococcus aureus enolase, wild type (Staphylococcus aureus) (UniProt Q2G028); experiment: crystal structure; PEP-bound Sa_enolase, 1.6 Å, space group I4, co-crystallised with 2-PG (1:10); 0.2 M ammonium acetate, 0.1 M Tris-HCl pH 8.5, 25% PEG 3350, 16°C
[7] = target: Staphylococcus aureus enolase, wild type (Staphylococcus aureus) (UniProt Q2G028); experiment: crystal structure; non-ligand-bound Sa_enolase, 2.45 Å, space group P42(1)2, a homodimer in the asymmetric unit, octamer by fourfold crystallographic symmetry; 0.01 M cobalt(II) chloride, 0.1 M MES pH 6.5, 1.8 M ammonium sulfate, 16°C

O=C(O)[C@@H](CO)OP(=O)(O)O [2-PG]
Kd (Sa_enolase (octamer)): 15 ± 2.6 µM

Sa_enolase (octamer) (Staphylococcus aureus)
Km [1]: 0.365 ± 0.030 × 10^−3 M | Vmax [1]: 74.8 µM/min | kcat [1]: 83 s⁻¹ | kcat/Km [1]: 227000 M⁻¹ s⁻¹

Sa_enolase D355A mutant (from UniProt Q2G028) (enzyme)
stoichiometry N [2]: 2

Sa_enolase F139A mutant (from UniProt Q2G028) (enzyme)
stoichiometry N [3]: 2

Sa_enolase G138A mutant (from UniProt Q2G028) (enzyme)
stoichiometry N [4]: 2

Sa_enolase Y135A mutant (from UniProt Q2G028) (enzyme)
stoichiometry N [5]: 2

Staphylococcus aureus enolase, wild type (from UniProt Q2G028) (enzyme)
stoichiometry N [6]: 8 | stoichiometry N [7]: 8
